Data on 41 sequences can be found in the nanobody polyreactivity screen of Harvey et al. (2022).

This data set can be described thus: yeast display, Sf9 membrane polyspecificity reagent, FACS + sequencing; frameworks hold sequencing errors. The procedure, abridged:
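After 36–48 hours of galactose induction, yeast (Saccharomyces cerevisiae BJ5465) displaying a synthetic nanobody library were stained at 4 °C for 1 hour with 10% biotinylated, detergent-solubilized Sf9 membrane reagent. Streptavidin microbeads enriched the stained cells before FACS sorting into low and high (top ~1%) gates on anti-HA and streptavidin fluorescence. Each clone's polyreactivity label reflects its gate of origin.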
As to “QVQLVESGGGLVQAGGSLRLSCAASGFIFYQYAMGWYRQAPGKERELVAAISTRGGSTYYADSVKGRFTISRDNAKNTVYLQMNSLKPEDTAVYYCNVLKYLSPGTYDYDYWGQGTQVTVSS”, the “polyreactivity (PSR sort gate)” value was “high polyreactivity”. For “QVQLEESGGGLVQAGGSLRLSFAAYGRTFGTNPMGWYRQATGKERELVAAITKSSSRTYYADSVKGRFTISRDNAKNTVYLQMNSLKPEDTAVYYCAARYYAVGGYDYWGQGTQVTVSS”, the “polyreactivity (PSR sort gate)” value was “high polyreactivity”. As for “QVQLVESGGGLVQAGGSLRLSCAASGNTFYGYAMGWYRQAPGNERELVASITLSGDSTYYADSVKGRFTISRDNAKNTVYLQMNSLKPEDTAVYYCAGVYTYPLGYYHDTYDYWGQGTQVTVSS”, the “polyreactivity (PSR sort gate)” value is on record as “low polyreactivity”. For the sequence “QVQLVESGGGLVQAGGSLRLSCAASGSTLYGYVMGWYRQAPGKERELVADITWSGGSTYYADSVKGRFIISRDNAKNTVYLQMNSLKPEDTAVYYCNADRYGIYYYSRLPFDYWGQGTQVTVSS”, the “polyreactivity (PSR sort gate)” value is recorded as “low polyreactivity”.

For “QVQLVESGGGLVQAGGSLRLSCAASGFTFKRYAMGWYRQAPGKERELVAAISYSGGSTYYADSVKGRFTISRDNAKNTVYLQMNSLKPEDTAVYYCAALPGRRLWTYDYWGQGTQVTVSS”, the “polyreactivity (PSR sort gate)” value is given as “high polyreactivity”. In the case of “QLQLVESGGGLDQAGGSLRLSCAASAFTFGYYSKGWNRQAPGKQTELVASISRSGGSTNYADSVKGRFTISRDNAKKTVYLQMNSLIPEDNAVYYCNNRVNTYRSVSRRYDYWGQGTQVTLSS”, the “polyreactivity (PSR sort gate)” value was “high polyreactivity”. In the case of “QVQLVESGGGLVQAGGSLRLSCAASGGTFHYYAMGWYRQAPGKERELVAAISWSGGSTYYADSVKGRFTISRDNAKNTVYLQMNSLKPEDTAVYYCAAETYPYLFHTYDYWGQGTQVTVSS”, the “polyreactivity (PSR sort gate)” value was “low polyreactivity”. Consider “QVQLVESGGGLVQAGGSLRLSCAASGYIFNPNAMGWYRQAPGKERELVAAITWSGGNTYYADSVKGRFTISRDNAKNTVYLQMNSLKPEDTAVFYCNAEYRWPYWGQWYFKGYDYWGQGTQVTVSS”, for which the “polyreactivity (PSR sort gate)” value is “low polyreactivity”.

As for “QVQLVESGGGLVQAGGSLRLSCAASGSIFPWYVMGWYRQAPGKERELVAAISWNGGITYADSVKGRFTISRDNAKNTVYLQMNSLKPEDTGVYYCAAYYITYSYIEYDYWGQGTQVSVSS”, the “polyreactivity (PSR sort gate)” value was “high polyreactivity”.

“QDQLVESRGGLVQAGRSLRISCAASGFIFYNYGMGWYRQAPGKEREFVAAITKRGGRTYYADSVKGRFTISRDYAKNTVYLQMTSLKPEDTAVYYCNKAIRQDRWVQEEDYWGQGTQVTVSS”: the “polyreactivity (PSR sort gate)” value was “high polyreactivity”. As for “QVQLVESGGGLVQAGGSLRLSCAASGFSFWSNDMGWSRQAPGKEREFVAAITTSGGNTYYADSVKGRFTISRDNAKNTVYLQMQSLKPEDTAVYYCAAEEGSTDATGYDYWGEGTQVTVSS”, the “polyreactivity (PSR sort gate)” value is recorded as “low polyreactivity”. Turning to “QVQLVESGGGLVQAGGSLRLSCAASGSIFYSNAMGWYRQAPGKERELVAAISVSGVSTYYADSVKGRFTISRDNAKNTVYLQMNSLKPEDTAVYYCAADTGYRYDDYYWWGGEYDYWGQGTQVTVSS”, the “polyreactivity (PSR sort gate)” value was “low polyreactivity”. Take “QVHLVESGGGLVQAGGSLRLSCAASGFIFPNNAMGWYRQAPGKERELVARISYGGGDTHYADSVKGRFTISRDNAKNTVYLQMNSLKPEDTAVSYCAVKDGQDDYWGQGTQVTVSS”: the “polyreactivity (PSR sort gate)” value was “low polyreactivity”. In the case of “QVQLVESGGGLVQAGGSLRLSCAASGRIFVIYAMGWYRQAPGKERELVAVINDDGSTNYADSVKGRFTISRDNAKNTVYLQMNSLKPEDTAVYYCAARGGRPLIHHWPWYSWKYDYWGQGTQVTVSS”, the “polyreactivity (PSR sort gate)” value was “low polyreactivity”.

On to “QGHLVESGGGLVQAGGSLRLSCAASGFIFDYYAMGWYRQAPRKERELVAAITRDGGGTYYADSVTGRFTISRDNAKNTVYLQMNSLKPEDTAVYYCAARRAVRLYYWGQGTQVTVSS”, for which the “polyreactivity (PSR sort gate)” value is on record as “high polyreactivity”. Take “QVQLVESGGGLVQAGGSLRLSCAASGYTVGNNAMGWYRQAPGKERELVARIRTNGGTTYYADSVKGRFTISRDNAKNTVYLQMNSLKPEDTAVYYCNAYRGYEYDYWGQGTQVTVSS”: the “polyreactivity (PSR sort gate)” value is recorded as “low polyreactivity”.

Consider “QVQLVESGGGLVQAGGSLRLSCAASGLTFLWYAMGWYRQAPGKERELVAAITSGGRTKYADSVKGRFTISRDNAKNTVYLQMNSLKPEDTAVYYCAAYTQWWGYDYWGQGTQVTVSS”, for which the “polyreactivity (PSR sort gate)” value is recorded as “high polyreactivity”. For the sequence “QVQLVESGGGLVQAGGSLRLSCAASGFTFWAYAMGWYRQAPGKETELVAAISKTGGRTYYADSVKGRFTISRDNAKNTVYLQMISLKPEDTAVYYCAVDITGLYYPVDYWGQGTQVTVSS”, the “polyreactivity (PSR sort gate)” value is given as “high polyreactivity”. Turning to “QVQLVESGGGLVQAGGSLRLSCASSGFIFHHYGMGRSRQAPGKERELVAGDTHYADSVKGRFTISRDNAKNTVYLQMNSLKPEDTAVYYCNAYWKDDFEDGPGRRGMDYWGQGTLVTVSS”, the “polyreactivity (PSR sort gate)” value is “low polyreactivity”. On to “QVQLVESGGGLVQAGGSLRLSCAASGLTFRWYALGWFRQATGKERELVAAISSGGRTYYADSVKGRFTISRDNANNTVYLQMNSRKPEDTAVYYCNKRTLDYGFGSYGREYWGQGTQVTVSS”, for which the “polyreactivity (PSR sort gate)” value is listed as “high polyreactivity”. The same measure for “QVQLVESGGGLVQAGGSLRLSCAASGSTINKYAMGWYRQAPGKERELVAAISRSGGSTNYADSVKGRFTISRDNAKNTVYLQMNSLKPEDTAVYYCNAGYGRWQRHDYWGQGTQVTVSS”: “high polyreactivity”. For “QVQLVETGGGIVQAGGILRLSCAYSGSIFYLYAMGWYRQAPGKERELVAAISTSGGRTHYADSVKGRITISRDNAKNTVYLQMNSLKPEDTAVYYCAAPAARPDGGYGYWGQGTQVTVSS”, the “polyreactivity (PSR sort gate)” value is given as “high polyreactivity”. “QVQLVESGGGLDQAGGSLRLSCAASGFIYWYYAMGWYRQAPVKERELVAAITRGGSTNYADSVKGRFTISRDNAKNTVYFQKNRLKPEDTSVYYCNASWRLVSSGFDGGYWGEGTQVTVSS”: the “polyreactivity (PSR sort gate)” value is reported as “high polyreactivity”. Take “QVQLVESGGGLVQAGGSLRLSCAASGFIFYAYAMGWYRPAPGKERELVAAISQRGGITYYADSVKGRFTISRDNAKNTVYLQMNRLKPEDTAVYYCNAGQRYYTSRYYYWGQGTQVTVSS”: the “polyreactivity (PSR sort gate)” value is given as “high polyreactivity”. As for “QVQLVESGGGLVQAGGSLRLSCAASGFIFVLNVMGWYRQAPGKEMELVAAITWSGTSTYYADSVKGRFTISRDNAKNTVYLQMNSLKPEDTAVYYCNADWWSDGYDYWGQGSQVTVSS”, the “polyreactivity (PSR sort gate)” value is “low polyreactivity”. As for “QVQLVESGGGLVQAGGSLRLSCAASGSTFSTYAMGWYRQAPGKERELVAAISRTGGSTYYADSVKGRFTISRDNAKNTVYLQMNSLKPEDTAVYYCATGDSGGYDYWGQGTQVTVSS”, the “polyreactivity (PSR sort gate)” value is “low polyreactivity”. In the case of “QVQLVESGGGLVQAGGSLRLSCAAYGRIFLPNSMGWYIQAPGKERELVAAITWSGGSTYYADSVKGRFTISRDNAKYTVFLQMTSLIPEDTAVYYGAGRGFSYRRRSQQFDYWGLGTQVTVSS” it was “high polyreactivity”; in that of “QVQLVESGGGLVQAGGSLRLSCAASGRTSTQNAMGWYRQAPGKERELVAAITTGGGSTYYADSVKGRFTISRDNAKNTVYLQMNSLKPEDTAVYYCAARTPQRSEWTKYGYWGQGTQVTVSS”, “low polyreactivity”; in that of “QVQLVESGGGLVQAGGSLRLSCAASGRIFYVYAMGWYRQAPGKERELVATISWSAGITYYADSVKGRFTISRDNAKNTVYLQMNSMKPEDTAVYYCAKVGRYTYSGQYDYWGQGTQVTVSS”, “high polyreactivity”.

In the case of “QGQLVESGGGLVQAGGSLRLICAASGFIFQANALGWYRQAPGQERELVAAITSSVGRTYYADSVKGRFTISRDNAKNTVYLQMNSLKPEYTEVYYCNAGGHLEMNYWGQGTQVTVSS”, the “polyreactivity (PSR sort gate)” value is “low polyreactivity”. For the sequence “QVQLVESGGGLVQAGGSLRLSCAASGIFAYYVMGWYRQAPGKERELVADISRGGSTNYADSVKGRFTISRDNAKNTVYLQMISLKPEDSAVYYCNARSYYPWEGYDYWGQGTQVTVSS”, the “polyreactivity (PSR sort gate)” value was “low polyreactivity”.

On to “QDQHVESGGGLVQAGGSLRLSCAASGSTYRDNAMGWSRQAPGKERELVAAISVSGASTYYADSVKGRFTISRDNAKNTVYLQMNSLKPEDTAVYDCAKSLYQALSLSFFIFGYWGQGTQVTVSS”, for which the “polyreactivity (PSR sort gate)” value is on record as “low polyreactivity”. The same measure for “QVQLVESGGGLVQAGGSLRLSCAASGRTTWIYAMGWYRQAPGKERELVAVISKRGGNTYYADSVKGRFTISRDNAKNTVYLQMNSLKPADTAVYYCAAAGVYGSYDYWGQGTQVTVSS”: “high polyreactivity”; for “QVQLVESGGGLVQAGGSLRLSCDASGFILYYNAMGWYRQAPGKEREMVAAITSGGGGTYYADSVKGRFTNSRDNAKNTVYFQMNSLNPEDTAVYYCNTRFGYRGGVDFDYWGQGTQVTVSS”: “high polyreactivity”. “QVQLVESGGGLVQAGGSLRLSCAASGITFDYYAMGWYRQAPGKERELVAAIRSGGSTNYADSVKGRFTISRDNAKNTVYLQMNSLKPVDTAVYYCAAVRYYPWYDYWGQGTQVTVSS”: the “polyreactivity (PSR sort gate)” value is reported as “high polyreactivity”. In the case of “QVQLVESGGGLVQAGGSLRLSCAASGRIFRQYAMGWYRQAPGKERELVAAITSGGSTNYADSVKGRFTISRDNAKNTVYLQMNSLKPEDTAVYYCNAAGGTRSGVQYDYWGQGTQVTVSS” it was “low polyreactivity”; in that of “QVQRVESGGGLVQAGGSLRISCAASGSITWYYSMGWYRQAPGKERELFAAISDSGGDKYYADSVKGRFTISRDNAKNTVYLQMNSLKPEDTAVYYCNARYSWYGTFGGDYWGQDTQVTVSS”, “low polyreactivity”; in that of “QVQLVETGGGLVQAGGSLRLSCAASGRTFAKYAMGWYRQAPGKERDLVASISGRGTNTYYADSVKGRFTISRDNAKNTVYLQMNSLKPEDTAVYYCAATYVYPYRDSHYFYWGQGTQVTVSS”, “high polyreactivity”. The same measure for “QVQLVESGGGLVQAGGSLRLSCAASGSTIGSYAMRLSRQAPGTERELVAVITSDGRTNYADSVKGRFTISRDNAKNTVYLQMNSLKPEDTAVYYCAAGYGRWRYGTGVYDNYYYWGQGTQVTVSS”: “low polyreactivity”; for “QVQLVESGGGLVQAGGSLRLSCAASGRIFPGYAMGWYRQAPGKERELVASIRWSGDSTYYADSVKGRFTISRDNAKNTVYLQMNSLKPEDTAVYYCNRRWYRGDYWGQGTQVTVSS”: “low polyreactivity”.

For the sequence “QVQLVESGGGLVQAGGSLRLSCAASGSTFYNYAMGWYRQAPGKERELVAAITSSGGSTYYADSVKGRFTISRDNAKNTVYLQMNSLKPEDTAVYYCAATRRVRRKSFTYRYDYWGQGTQVTVSS”, the “polyreactivity (PSR sort gate)” value was “high polyreactivity”.
